The supplement of paper PMC10065799, “High-throughput profiling of sequence recognition by tyrosine kinases and SH2 domains using bacterial peptide display” (eLife, 2023)

Experiments:
c-Src SH2 = assay: SH2 binding enrichment of the phosphorylated peptide, bacterial display (enrichment ratio); higher = better substrate or ligand; peptides without Tyr show the background
Grb2 SH2 = Grb2 SH2 (UniProt P62993); assay: as above
SHP2-C SH2 = assay: as above
Fyn = Fyn (UniProt P06241); assay: phosphorylation enrichment, bacterial display (enrichment ratio); higher = better substrate or ligand; peptides without Tyr show the background
MERTK = MERTK (UniProt Q12866); assay: as above
EPHB2 = EPHB2 (UniProt P29323); assay: as above
Hck = Hck (UniProt P08631); assay: as above
Jak2 = Jak2 (UniProt O60674); assay: as above
c-Src = assay: as above
c-Abl (mouse) = assay: as above
AncSZ = assay: as above
Fer (mouse) = assay: as above
Fes = Fes (UniProt P07332); assay: as above
FGFR3 = FGFR3 (UniProt P22607); assay: as above
FGFR1 = FGFR1 (UniProt P11362); assay: as above
EPHB1 = EPHB1 (UniProt P54762); assay: as above
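For SH2 binding enrichment of the phosphorylated peptide, bacterial display in this document: peptide library displayed on the E. coli surface as eCPX fusions, selected cells deep-sequenced, score is each peptide's frequency after selection divided by its frequency in the input.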
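For phosphorylation enrichment, bacterial display in this document: 11-residue human phosphosite peptides and single-mutation variants displayed on the E. coli surface, counted by deep sequencing, each peptide's frequency after selection divided by its frequency in the unselected input library; frequency after pTyr selection over input frequency; kinase dosed for 20-30% of maximal phosphorylation in three min.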

Chain of Jak2 (O60674 whole entry, looked up): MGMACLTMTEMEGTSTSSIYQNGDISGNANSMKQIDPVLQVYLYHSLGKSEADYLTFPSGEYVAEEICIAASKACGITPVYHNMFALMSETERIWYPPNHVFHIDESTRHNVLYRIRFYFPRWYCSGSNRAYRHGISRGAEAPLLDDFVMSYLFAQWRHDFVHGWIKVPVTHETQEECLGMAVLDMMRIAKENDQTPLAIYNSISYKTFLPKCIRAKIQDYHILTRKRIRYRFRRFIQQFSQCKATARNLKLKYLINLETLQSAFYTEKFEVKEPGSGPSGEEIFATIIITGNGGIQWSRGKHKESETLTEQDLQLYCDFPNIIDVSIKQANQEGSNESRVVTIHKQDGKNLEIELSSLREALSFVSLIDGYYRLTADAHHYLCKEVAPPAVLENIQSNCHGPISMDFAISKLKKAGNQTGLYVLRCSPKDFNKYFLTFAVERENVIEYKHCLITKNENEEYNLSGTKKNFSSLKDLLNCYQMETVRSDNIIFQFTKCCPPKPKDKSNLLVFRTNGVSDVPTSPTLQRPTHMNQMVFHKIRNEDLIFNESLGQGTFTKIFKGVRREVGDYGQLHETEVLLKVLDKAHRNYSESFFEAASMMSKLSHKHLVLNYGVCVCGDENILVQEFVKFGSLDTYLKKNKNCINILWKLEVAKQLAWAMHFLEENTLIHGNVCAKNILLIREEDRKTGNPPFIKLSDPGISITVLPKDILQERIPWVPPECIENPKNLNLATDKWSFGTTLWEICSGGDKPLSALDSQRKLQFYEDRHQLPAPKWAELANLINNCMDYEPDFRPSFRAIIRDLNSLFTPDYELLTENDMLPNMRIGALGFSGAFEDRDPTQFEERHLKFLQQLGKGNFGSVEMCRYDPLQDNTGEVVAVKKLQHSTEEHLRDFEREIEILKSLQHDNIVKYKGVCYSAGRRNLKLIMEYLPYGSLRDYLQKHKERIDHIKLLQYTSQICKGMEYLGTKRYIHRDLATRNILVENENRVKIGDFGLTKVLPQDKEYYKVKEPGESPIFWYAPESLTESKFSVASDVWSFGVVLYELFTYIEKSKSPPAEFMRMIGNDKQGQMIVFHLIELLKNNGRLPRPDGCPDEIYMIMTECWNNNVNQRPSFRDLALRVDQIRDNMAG
Chain of FGFR1 (P11362 whole entry, looked up): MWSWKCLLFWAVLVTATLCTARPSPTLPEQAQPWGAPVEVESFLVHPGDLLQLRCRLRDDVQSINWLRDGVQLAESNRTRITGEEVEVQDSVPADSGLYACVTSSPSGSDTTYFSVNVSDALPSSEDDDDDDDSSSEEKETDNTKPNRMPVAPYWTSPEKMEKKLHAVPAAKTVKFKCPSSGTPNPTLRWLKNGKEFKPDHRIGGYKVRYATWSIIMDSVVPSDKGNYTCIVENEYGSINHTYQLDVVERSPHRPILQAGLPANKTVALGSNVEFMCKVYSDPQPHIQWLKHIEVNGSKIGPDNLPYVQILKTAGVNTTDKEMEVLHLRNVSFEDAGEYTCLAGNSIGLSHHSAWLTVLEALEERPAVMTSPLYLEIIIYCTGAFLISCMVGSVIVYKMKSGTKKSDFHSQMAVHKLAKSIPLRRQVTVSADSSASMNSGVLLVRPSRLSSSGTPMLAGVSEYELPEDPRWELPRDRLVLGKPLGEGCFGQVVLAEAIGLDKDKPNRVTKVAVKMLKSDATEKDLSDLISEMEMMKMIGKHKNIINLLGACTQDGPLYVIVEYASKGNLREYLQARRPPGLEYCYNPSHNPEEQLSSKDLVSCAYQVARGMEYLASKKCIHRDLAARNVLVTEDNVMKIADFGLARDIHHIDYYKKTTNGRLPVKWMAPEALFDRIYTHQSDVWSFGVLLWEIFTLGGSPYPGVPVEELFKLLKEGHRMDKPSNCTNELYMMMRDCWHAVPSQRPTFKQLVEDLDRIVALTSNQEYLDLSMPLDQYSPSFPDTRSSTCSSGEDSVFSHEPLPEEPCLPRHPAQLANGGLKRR
Chain of Hck (P08631 whole entry, looked up): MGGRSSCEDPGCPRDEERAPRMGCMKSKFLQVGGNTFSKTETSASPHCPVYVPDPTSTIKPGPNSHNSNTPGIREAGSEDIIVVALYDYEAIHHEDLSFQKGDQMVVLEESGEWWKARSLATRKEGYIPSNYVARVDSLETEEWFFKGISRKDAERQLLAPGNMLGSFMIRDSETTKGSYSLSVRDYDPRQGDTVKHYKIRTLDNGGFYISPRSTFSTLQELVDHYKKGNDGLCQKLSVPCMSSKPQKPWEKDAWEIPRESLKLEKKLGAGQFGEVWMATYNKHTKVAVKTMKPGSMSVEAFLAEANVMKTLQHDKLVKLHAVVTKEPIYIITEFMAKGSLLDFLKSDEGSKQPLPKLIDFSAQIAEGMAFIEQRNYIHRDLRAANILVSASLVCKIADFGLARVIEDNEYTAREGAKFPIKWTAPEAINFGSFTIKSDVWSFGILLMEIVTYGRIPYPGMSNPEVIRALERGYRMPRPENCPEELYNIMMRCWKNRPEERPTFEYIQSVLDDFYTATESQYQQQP
Chain of FGFR3 (P22607 whole entry, looked up): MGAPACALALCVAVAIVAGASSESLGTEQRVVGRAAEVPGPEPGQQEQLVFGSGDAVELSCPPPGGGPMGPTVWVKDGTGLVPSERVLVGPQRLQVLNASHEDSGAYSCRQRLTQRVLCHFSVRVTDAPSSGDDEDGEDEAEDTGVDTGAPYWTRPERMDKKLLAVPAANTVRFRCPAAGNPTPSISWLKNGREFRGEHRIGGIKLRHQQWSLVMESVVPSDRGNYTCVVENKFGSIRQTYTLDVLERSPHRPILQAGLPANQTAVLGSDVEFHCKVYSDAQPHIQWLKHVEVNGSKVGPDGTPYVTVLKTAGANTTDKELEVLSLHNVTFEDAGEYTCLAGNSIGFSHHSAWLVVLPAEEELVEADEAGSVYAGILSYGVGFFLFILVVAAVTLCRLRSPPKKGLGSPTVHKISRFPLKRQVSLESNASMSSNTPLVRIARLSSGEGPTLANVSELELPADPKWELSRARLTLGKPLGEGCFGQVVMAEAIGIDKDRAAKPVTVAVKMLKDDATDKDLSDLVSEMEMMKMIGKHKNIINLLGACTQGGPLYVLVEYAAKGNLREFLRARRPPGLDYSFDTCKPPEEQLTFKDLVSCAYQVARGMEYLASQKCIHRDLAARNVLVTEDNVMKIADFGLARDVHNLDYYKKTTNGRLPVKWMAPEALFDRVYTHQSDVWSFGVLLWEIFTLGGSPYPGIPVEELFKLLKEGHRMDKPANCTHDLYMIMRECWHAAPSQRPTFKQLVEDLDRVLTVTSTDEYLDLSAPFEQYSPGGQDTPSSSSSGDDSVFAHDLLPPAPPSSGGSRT
Chain of EPHB1 (P54762 whole entry, looked up, the tested form may be a part): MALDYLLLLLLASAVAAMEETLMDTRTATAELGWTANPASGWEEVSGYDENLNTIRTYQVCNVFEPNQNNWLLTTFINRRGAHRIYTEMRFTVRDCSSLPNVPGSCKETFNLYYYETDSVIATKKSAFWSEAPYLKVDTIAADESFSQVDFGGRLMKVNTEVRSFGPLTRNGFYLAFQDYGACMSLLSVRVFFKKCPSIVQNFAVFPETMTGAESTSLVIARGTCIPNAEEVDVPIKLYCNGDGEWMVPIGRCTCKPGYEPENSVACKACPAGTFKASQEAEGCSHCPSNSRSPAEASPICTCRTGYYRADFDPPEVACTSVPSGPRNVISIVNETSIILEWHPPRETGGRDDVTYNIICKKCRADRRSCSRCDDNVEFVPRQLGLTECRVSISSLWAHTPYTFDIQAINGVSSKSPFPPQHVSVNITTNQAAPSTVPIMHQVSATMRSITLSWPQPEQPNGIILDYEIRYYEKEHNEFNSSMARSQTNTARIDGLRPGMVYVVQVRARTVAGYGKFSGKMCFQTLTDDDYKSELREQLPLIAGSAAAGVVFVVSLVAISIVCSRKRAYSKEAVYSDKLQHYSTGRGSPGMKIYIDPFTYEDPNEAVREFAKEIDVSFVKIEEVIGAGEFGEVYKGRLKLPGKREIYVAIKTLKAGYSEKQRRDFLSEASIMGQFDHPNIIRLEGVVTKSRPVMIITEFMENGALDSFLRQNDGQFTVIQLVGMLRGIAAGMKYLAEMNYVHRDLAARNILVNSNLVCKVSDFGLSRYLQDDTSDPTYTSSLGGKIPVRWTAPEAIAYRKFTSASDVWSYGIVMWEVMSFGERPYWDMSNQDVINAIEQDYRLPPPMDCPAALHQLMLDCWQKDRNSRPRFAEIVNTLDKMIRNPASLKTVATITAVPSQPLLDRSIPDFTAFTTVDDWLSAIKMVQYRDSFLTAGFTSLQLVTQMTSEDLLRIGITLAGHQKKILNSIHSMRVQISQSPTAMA
Chain of Grb2 SH2 (P62993 whole entry, looked up): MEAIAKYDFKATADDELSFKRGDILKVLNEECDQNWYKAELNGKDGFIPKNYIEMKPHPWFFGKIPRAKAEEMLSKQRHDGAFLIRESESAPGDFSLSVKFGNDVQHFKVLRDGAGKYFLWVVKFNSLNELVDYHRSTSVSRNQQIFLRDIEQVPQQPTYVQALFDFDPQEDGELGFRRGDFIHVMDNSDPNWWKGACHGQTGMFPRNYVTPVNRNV
Chain of Fyn (P06241 whole entry, looked up): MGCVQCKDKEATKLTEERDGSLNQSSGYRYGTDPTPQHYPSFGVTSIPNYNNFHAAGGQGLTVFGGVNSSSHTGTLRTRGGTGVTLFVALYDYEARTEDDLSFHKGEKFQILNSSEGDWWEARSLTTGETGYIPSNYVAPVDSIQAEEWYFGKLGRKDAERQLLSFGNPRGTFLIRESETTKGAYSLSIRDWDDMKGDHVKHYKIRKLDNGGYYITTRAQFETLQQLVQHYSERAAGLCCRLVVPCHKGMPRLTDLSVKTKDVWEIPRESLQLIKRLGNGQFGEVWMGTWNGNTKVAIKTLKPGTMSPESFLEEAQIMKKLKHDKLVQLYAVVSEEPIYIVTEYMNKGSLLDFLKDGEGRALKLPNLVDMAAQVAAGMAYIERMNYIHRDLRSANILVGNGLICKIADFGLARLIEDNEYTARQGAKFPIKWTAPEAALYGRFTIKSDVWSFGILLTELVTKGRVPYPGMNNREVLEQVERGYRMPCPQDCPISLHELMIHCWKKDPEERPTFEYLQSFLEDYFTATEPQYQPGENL

Sequence	SH2 binding enrichment (c-Src SH2)	SH2 binding enrichment (Grb2 SH2)	SH2 binding enrichment (SHP2-C SH2)	phosphorylation enrichment (Fyn)	phosphorylation enrichment (MERTK)	phosphorylation enrichment (EPHB2)	phosphorylation enrichment (Hck)	phosphorylation enrichment (Jak2)	phosphorylation enrichment (c-Src)	phosphorylation enrichment (c-Abl (mouse))	phosphorylation enrichment (AncSZ)	phosphorylation enrichment (Fer (mouse))	phosphorylation enrichment (Fes)	phosphorylation enrichment (FGFR3)	phosphorylation enrichment (FGFR1)	phosphorylation enrichment (EPHB1)
VVEVTYDDVPI [FLNB_Y1308]	0.519	0.819	0.529	1.76	0.688	1.07	1.82	1.1	1.3	0.805	2.02	5.94	1.56	0.947	0.742	1.57
NMRSTYAKLAA [SEC22B_Y193_H190R]	1.67	0.636	9.73	0.407	0.49	0.397	0.456	0.587	0.444	0.453	0.563	0.439	0.561	0.403	0.359	0.373
TLKVGYTEKQR [EPHA3_Y659]	0.486	1.08	0.714	0.27	0.322	0.299	0.353	0.407	0.328	0.369	0.417	0.386	0.378	0.351	0.404	0.259
EEHIPYTHMNG [INSR_Y1361]	0.722	0.754	0.807	0.451	0.403	0.517	0.51	0.668	0.371	0.555	0.797	0.452	0.85	0.598	0.497	0.54
TEQMAYCPIQC [SHC4_Y403]	0.777	0.793	0.643	0.421	0.678	0.676	0.949	1.26	0.949	0.754	1.17	1.14	1.02	0.737	0.609	0.434
KRELRYMHSRV [ABCD1_Y281_G277R]	1.49	1.43	1.65	0.312	0.305	0.534	0.381	0.525	0.313	0.486	0.472	0.272	0.578	0.447	0.295	0.282
QNTGDYCDLFG [PTPN11_Y62_Y63C_YF]	0.723	0.827	0.491	0.681	0.806	8.46	0.696	1.3	0.789	1.17	3.53	0.966	1.41	3.7	5.82	9.89
SQGRQYQELPR [KCNH2_Y1009_R1005Q]	1.41	0.82	0.545	0.45	0.412	0.402	0.668	0.517	0.423	0.473	0.666	0.402	0.568	0.477	0.483	0.354
NDDDVYLSLEE [VAV2_Y142_R143L]	0.477	0.834	0.616	0.706	0.507	0.627	0.721	1.54	0.804	1.05	1.49	0.656	1.48	0.984	0.725	0.793
IGEGTYGQVFK [CDK13_Y716_YF]	0.426	0.774	0.808	10.8	0.428	1.18	8.97	0.569	7.69	0.566	0.456	0.636	0.665	0.402	0.324	0.62
EQQRAYLEGTC [HLA-C_Y183_L180Q]	0.69	0.916	0.758	0.518	0.521	0.555	0.556	0.93	0.531	0.834	0.939	0.455	1.03	0.602	0.599	0.647
GPKSTYISSAG [GOLGA5_Y62_A67G]	0.38	0.713	0.581	0.395	0.389	0.382	0.319	0.411	0.365	0.464	0.496	0.345	0.587	0.374	0.326	0.298
LNPFIYSLRNC [OR1A2_Y288_W293C]	0.624	0.69	0.734	4.37	1.04	1.24	5.22	1.11	6.28	0.792	1.45	1	2.72	1.2	0.902	0.826
AVLSLYASGST [ACTG2_Y144_R148S]	0.611	1.06	0.907	0.476	0.414	0.722	0.638	1.09	0.541	0.829	1.08	0.558	1.26	0.723	0.572	0.729
PINLFYLMDLS [ITGB2_Y131_D128N_YF]	0.489	0.772	0.781	0.653	0.763	0.886	0.718	1.92	1.11	2.11	1.46	0.695	1.98	1.11	0.772	0.752
QEALEYFMKQV [PIK3CA_Y1038_M1043V]	0.472	0.664	1.05	0.382	0.289	0.392	0.416	0.849	0.463	0.597	1.18	0.402	0.978	0.565	0.408	0.467
